Data taken from PMC10408046, “Specific detection of tau seeding activity in Alzheimer’s disease using rationally designed biosensor cells” (Molecular Neurodegeneration, 2023).

B1: pseudoacetylated tau (244:378) P301L 3xKQ probe with (EAAAK)3 linker to mTurquoise2 or mNeonGreen (domain or fragment)
chain: QTAPVPMPDLKNVKSKIGSTENLKHQPGGGKVQIINKKLDLSNVQSKCGSKDNIKHVLGGGSVQIVYQPVDLSQVTSQCGSLGNIHHKPGGGQVEVKSEKLDFKDRVQSKIGSLDNITHVPGGGNKKIETHKLTFEAAAKEAAAKEAAAK
notes: microtubule associated protein tau, amino acids 244 to 378, P301L and lysines 311, 317 and 321 changed to glutamines to mimic acetylation (3xKQ); Both labelled copies come from one construct with a T2A self-cleaving peptide; a small amount of uncleaved polypeptide was seen by western blot; also called 3xKQ mutant; pseudoacetylated (EAAAK)3 probe; source: HEK293T, transiently transfected, in cells

How the values were obtained:
[1] = target: pseudoacetylated tau (244:378) P301L 3xKQ probe with (EAAAK)3 linker to mTurquoise2 or mNeonGreen (UniProt P10636)
[2] = target: the molecule itself; experiment: FRET or BRET; FRET between the two differently labelled copies of the probe, read by flow cytometry; HEK293T transiently transfected, exposed 24 h to serial dilutions of human AD brain extract with Lipofectamine 2000 (1% vol/vol) in Opti-MEM

Molecule | seeding signal (FRET, flow cytometry) in the novel biosensor HEK293T clone 18: tau-immunodepleted AD brain material against the starting material [1] [%] | fold increase in FRET-positive cells against the probe without 3xKQ [2] [fold]
seeding-competent tau from human Alzheimer's disease brain (from UniProt P10636 1-758) (natural protein) | 82.3 | –
B1 | – | ~3
